The results in this text go back to the nanobody polyreactivity screen of Harvey et al. (2022).

A short description of the series: yeast display, Sf9 membrane polyspecificity reagent, FACS + sequencing; frameworks hold sequencing errors. An outline of the steps:
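A nanobody's polyreactivity label depends on the gate it was sorted from. Yeast display cells were stained with 10% biotinylated, detergent-solubilized Sf9 membrane reagent for 1 hour at 4 °C, enriched on streptavidin microbeads and sorted by FACS. The low and high (top ~1%) gates were set on anti-HA fluorescence for expression and streptavidin fluorescence for reagent binding.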
Take “QVQLVQSGGGLVQAGGSLRLSCAASGNIFKGYAMRWYRQAPVKERELVAAISKSGGSTYYADSVKGRFTMSRDNAKNTVYLQLNSLKPADTAVYYSNTYTYAGYNYWGQGTQVTVSS”: the “polyreactivity (PSR sort gate)” value is reported as “high polyreactivity”.

Turning to “QVQLVESGGGLVQAGGSLRLSCAASGRTFEINAMGWYRQAPGKERELVAAITVSGGSTYYADSVKGRFTISRDNAKNTVYLQMNSLKPEDTAVYYCAVEIDYGQGKEVNSWGQGTQVTVSS”, the “polyreactivity (PSR sort gate)” value is given as “low polyreactivity”.

Take “QVQLVESGGGLVQAGGSLRLSCAASGSIFTRNAMGWYRQAPGKERELVATIRKNGASTTYADSVKGRFTISRDNAKNTVYLQMNSLKQEDTAVYYCARDHHTKYNYWGQGTQVTVSS”: the “polyreactivity (PSR sort gate)” value is “low polyreactivity”.

Turning to “QVQLVESGGGLVQAGGSLRLSCAASGRIFNPYAMGWYRQAPGKEREFVAAIRWSSGSTSYADSVKGRFTISRDNAKNTVYLQMNSLKPEDTAVYYCNTRSHSYYTLWGASRPRFDYWGQGTQVTVSS”, the “polyreactivity (PSR sort gate)” value is “high polyreactivity”.

Take “QVQLVESGGGLVQAGGSLRLSCAASVSNFPPYVMGWYRQAPGKERELVAAITWSSGSTYYADSVKGRFTISRDNAKNTVYLQMNRLKPEDTAVYYCAAVLPFKYDYWGQGTQVTVSS”: the “polyreactivity (PSR sort gate)” value is listed as “low polyreactivity”.

Consider “QVQLVESGGGLVQAGGSLRLSCAASGRIYKRNAMGWYRQAPGKERELVAAITGNVGSTYYADSVKGRFTISRDNAKNTVYLQMNSLKPEDTAVYYCAAETYPVWGVAFYYWGQGTQVTVSS”, for which the “polyreactivity (PSR sort gate)” value is given as “high polyreactivity”.

Take “QVQLVESGGGLVQAGGSLRLSCAASGSIFRRYAMGWYGQAPGKERELVAAISWSGGSTYYADSVKGRFTISRDNAKNTVYLQMNSLKPEDTAVYYCAARHRQQKLDYWGQGTQVTVSS”: the “polyreactivity (PSR sort gate)” value was “high polyreactivity”.

Turning to “QVQLVESGGGLVQAGGSLRVSCAASGRILNPNAMGWYRQAPGKERELVADISSGGSTYADSVKGRFTISRDNAKNTVYLQMNSLKPEDTAVYYCAKPGYEEFYREYDSWGQGTQVNVSS”, the “polyreactivity (PSR sort gate)” value was “low polyreactivity”.

On to “QVQLVESGGGLVQAGGSLRLSCAASGRIVDIYAMGWYRQAPGTERELVAAITWRGGSTYYADSVKGRFTISRDNAKNTVYLQMNSLKPEDTAVYYCAVDFFTPRGSYYWGQGTQVTVSS”, for which the “polyreactivity (PSR sort gate)” value is given as “low polyreactivity”.

“QVQLVESCGGLVQAGGSLRLSCAASGIIFWWYTMGWYRQAPGKERELVAAISRGGNTNYADSVKGRFTISRDNAKNTVYLQMNSLKTEDTAFYYCAADRHYRFWQYDYWGQGTQVTVSS”: the “polyreactivity (PSR sort gate)” value is “high polyreactivity”.

Take “QVQLVESGGGLVQAGGSLRLSCAASGRTSRYAMGWYRQAPGKERELVAAISRNGGTTSYADSVKGRFTISRDNAKNTVYLQMNSLKPEDTAVYYCNAYSAFVPPTRGYYWGQGTQVTVSS”: the “polyreactivity (PSR sort gate)” value is recorded as “high polyreactivity”.

Turning to “QVQLVESGGGIVQAGGSLRLSCAASGSTFESNAMGSYRQAPGKERELVAAISRGGNTYYADSVKGRFTISRDNAKNTVYLQMNSLKPEDTAVYYCNVDRGNPVQPSEYWGQGTQVTVSS”, the “polyreactivity (PSR sort gate)” value is reported as “low polyreactivity”.

Take “QVQLVESGGGLDQAGGSLRLSCAASGRTFFYNAMGWYRQAPGKESEWDAAISYSGGSTYYADSVKGRFTISRDNAKNTVYLQMNSLKPEDTAVYYCAARDKTRSVRRTGMDYWGQGTQVTVSS”: the “polyreactivity (PSR sort gate)” value is “high polyreactivity”.

For “QVQLVESGGGLVQAGGSLRLSCAASGLISYAYAMGWYRQAPGKERELVAAIRSSGSTYYADSVKGRFTISRDNAKNTVYLQMNSLKPEDTAVYYCAAYVWRRGDGYYYWGQGTQVTVSS”, the “polyreactivity (PSR sort gate)” value is given as “high polyreactivity”.

As for “QVQLVESGGGLVQAGGSLRLSCAASGRIFLYYAMGWYRQAPGKERELVAAIDSSGGNTNYADSVKGRFTISRDNAKNTVYFQMNSLKPEDTAVYYCAADFYVSADRWPNYDYWGQGTQVTVSS”, the “polyreactivity (PSR sort gate)” value is given as “low polyreactivity”.

Consider “QVQLVESGGGLVQAGGSLRFSCVASGSIFRGNAKGWYRQAPGKERELVASISKGGGSTYYADSVKGRFLISRDNAKNTVYLQMNSLKPEDTAVYYCAARGGLDGIQYDYDYWGQGTQVTVSS”, for which the “polyreactivity (PSR sort gate)” value is on record as “low polyreactivity”.

On to “QVQLVDSGGGLVQAGGSLRLSCAASGITFNLYAMGWYRQAPGKERELVAAISNVGSTKYADSVKGRFTISRDNAKNTVYLQMTSLKPEDTAVYYCAADWDRYPDYDYWGQGTQVTVSS”, for which the “polyreactivity (PSR sort gate)” value is “low polyreactivity”.

As to “QVQLVESGGGLDQAGGTLRISCAASGSIFAPNAMSWNRQAPGKERELVAAITYSGTSTYADSVKGRFTISRDNAKNTVYLQMNSLKPEDTAVYYCAAEGSGVYYHSYDYWGQGTQVTVSS”, the “polyreactivity (PSR sort gate)” value was “low polyreactivity”.

For “QVQLVESGGGLVLAGGSLRLSCADSGLILRLNAMGWYRQAPGKDRELVATINRGGSTNYADSVKGRFTISRDNAKNTVFLQMNSLNPEDTAVDYCNKARTSQYHHTYWRTYGYWGQGTQVTVSS”, the “polyreactivity (PSR sort gate)” value is recorded as “low polyreactivity”.

Turning to “QVQLVESGAGLVQAGGSLRLSCAASGRIFTNYVLGWSRQAPGKERELVAAISWTGGRTYYADSVKGRFTISRDYAKNTVYLQMISLKPEDTAVYYCAARARIGTVDYWGQGTQVTVSS”, the “polyreactivity (PSR sort gate)” value is listed as “high polyreactivity”.

“QVQLVESGGGLVQAGGSLRISCAASGRIFSGYAMGWYRQAPGKERELVAAITSGGSTNYADSVKGRFTISRDNAKNTVYLQMNSLKPEDTAVYYCAADSREVSTTAYYYWGQGTQVTVSS”: the “polyreactivity (PSR sort gate)” value is reported as “low polyreactivity”.

Consider “QVQLVESGGGLVQAGGSLRLSCAASGRIFAVYAMGWYRQAPGKERELVAAINNGASTNYADSVKGRFTISRDNAKNTVYLQMNSLKPEDTAVYYCAAYGYWGQGTQVTVSS”, for which the “polyreactivity (PSR sort gate)” value is “high polyreactivity”.

With “QVQLVESGGGLVQAGGSLRLSCAASGRIFRGYAMGWYRPAPGKERELVAAINWSGGSTDYADSVKGRFTISRDYAKNTVYLQMNSLKPEDTAVYYCSTSTCRGYSWGHGTQVTVSS”, the “polyreactivity (PSR sort gate)” value is reported as “high polyreactivity”.

On to “QVQLVESGGGLVQAGGSLRLSCAASGRIFWINDMGWSRQAPGKERELVAAIRSIGGSTYYADSVKGRFTISRDNGKNTVYLQMNSLKPEDTAVYYCAAKSSPKVRGRYYYWGQGTQVTVSS”, for which the “polyreactivity (PSR sort gate)” value is reported as “low polyreactivity”.

“QVQLVESGGGLVQAGGSLRLSCAASGRTFEHYVMGWYRQAPGKERELVAAISNSGDTTFYADSVKGRFTISRDNAKNTVYFQMNSLKPEDTAVYYCNADSYWHWGEWLYAPYDYWGQGTQVTVSS”: the “polyreactivity (PSR sort gate)” value is on record as “low polyreactivity”.

Take “QVQLEESGGGLVQAGGSLRLSCAASGRIFAVNAMGGYRQAPGKERELVAAINGGGSTNYADSVKGRFTLSRDNAKNTVYLQMNSLKPADTAVYYCAADVGWRSQTRGYYWGQGTQVTVSS”: the “polyreactivity (PSR sort gate)” value was “high polyreactivity”.

Consider “QVQLVESGGGLVQAGGSLRLSCAASGGIFAWNAMGWYRQAPGKERELVAAISGRGGSTTYADSVKGRFTISRDNAKNTVYLQMNSLKPEDTAVYYCAKRWYSGWYKYDYWGQGTQVTVSS”, for which the “polyreactivity (PSR sort gate)” value is on record as “high polyreactivity”.

Regarding “QVQLVESGGGLVQAGGSLRLSSAASGRIFYLNAMGWYRQAPGIERELVAAINTSGDSTYYADSVKGRFTISRDNAKNTVYLQMNSLKPEDTEVYYCAAYVIGPDHFIYDYWGQGTQVTVSS”, the “polyreactivity (PSR sort gate)” value was “low polyreactivity”.

For “QVQLVESGGGLVQAGGSLRLSCPASGFTFYRYAMGWYRQSPGKEREFVAAITWSGGSTYYADSVKGRFTISRDNAKNTVYLQMNSLKPEDTAVYYCAAYVALDGTREYDYWGQGTQVTVSS”, the “polyreactivity (PSR sort gate)” value is “high polyreactivity”.

“QDQLVESGGGLVQAGGSLRLSCAASGITFYRNAMGWYRQAPGKERELVAAITSGTRTNYADSVKGRFTISRDNAKNTVYLQMNSLKPEDTAVYYCAKGGRSSSPLYRFEYWGQGTQVTVSS”: the “polyreactivity (PSR sort gate)” value is “high polyreactivity”.

Regarding “QVQLVESGGGLVQAGGSLRLSCAASGSTFTYNAMGWYRQAPGKVRELVASISSGTTTYYADSVKGRFTISRDNAKNTVYLQMNSLTPEDTAVYYCAVDSWSRVQGWLAHNYDYWGQGTQVTVSS”, the “polyreactivity (PSR sort gate)” value is on record as “low polyreactivity”.

Turning to “QVQLVESGGGLVQAGGSLRLSCAASGFTIRNNAMGWYRQAPGKERELVAAISYSGGSTYYADSVKGRFTISRDNAKNTVYLQMNSLKPEDTAVYYCNRRRWSYLEYDYWGQGTQVTVSS”, the “polyreactivity (PSR sort gate)” value was “low polyreactivity”.

As for “QVQLVETGGGLVQAGGSLRLSCAASGSSFGSYAMGWYREAPGKERELVAAISSSGASTYYADSVKGRFTISRDNAKITVYLQMNSLKPEDTAVYYCNAARRYPTRGGYWGQGTQVTVSS”, the “polyreactivity (PSR sort gate)” value is “high polyreactivity”.

For “QVQLVESGGGLVQAGGSLRLSCAASGITFYINAMGWYRQAPAKERELVAVIDSRGSSTFYADSVKGRFTISRDNAKNTVYLLMNSLKPEDTAVYYCAVEGYPGRYRDPGDLYYYWGQGTQVTLSS”, the “polyreactivity (PSR sort gate)” value is reported as “low polyreactivity”.

As to “QVQLVESGGGLVQAGGSLRLSCAASGSLFNYYAMAWSRTAPGKERELVAGITTSGGSTYYAESVKGRFRISRDNAKNTVYLQMNSLKPEDTAVYYCAAYDYISSTYFLDDYWGQGTQVTVSS”, the “polyreactivity (PSR sort gate)” value is reported as “low polyreactivity”.

“QVQLVESGGGLVQAGGSLRLSCAASGRIFCDNGMGWYRQAPAKESELVTYADSVKGLFTISRDNAKNTVYLQMNSLKPEDTAVYYCNKDPPRFSGLDENYWGQGTQVTVSS”: the “polyreactivity (PSR sort gate)” value is “low polyreactivity”.

On to “QVQLVESGGGLVQAGGSLRLICAASGYTFTGYAMGWYRQAPGKEREFVAGITWRTGRTYYADSVNGRFTISRDNAKNTVYLQMNSLKPEDTAVYYCAAVPWKRYDYYTPFARGYWGQGTQVTVSS”, for which the “polyreactivity (PSR sort gate)” value is listed as “low polyreactivity”.

“QVQLVESGGGLVQAGGSLRLSCAASGSTFGAYDMGWYRQAPGKERELVAVISSRDGSTYYADSVKGRFTISRDNAKNTVYLQMNSLKPEDTAVYYCAADYPVPYNGGDGSWGQGTQVTVSS”: the “polyreactivity (PSR sort gate)” value was “low polyreactivity”.

For “QVQLEESGGGLVQAGGSLRLSCAASGFIFSRYDMGWYRQAPGKERELVAAITSGGSTYYADSVKGRFTISRDNAKNTVYLQMNSLKPEDTAVYYCNAYVRSDYDYWGQGTQVTVSS”, the “polyreactivity (PSR sort gate)” value is “high polyreactivity”.

As to “QVQLVESGGGLVQAGGRLRLSCAPSGSTFHSNDMGWYRQAPGKERELVAAITWSGARTYYVDSVKGRFTISRDNAKNTVYLQMNSLKPEDTAVYSCAKKAPSDRNNYWGQGTQVTVSS”, the “polyreactivity (PSR sort gate)” value is recorded as “high polyreactivity”.

For “QVQLVESGGGLVQAGGSLRLSCAASGFTFVINDMGWYRQAPGTERELVADITSGGDTYYADSVKGRFTISRDNAKNTDYLQLNSLKPEDTAVYYCAADIYPDWIYLLYGYWGQGTQVTVSS”, the “polyreactivity (PSR sort gate)” value is on record as “low polyreactivity”.
